The record followed here is the Immune Epitope Database (IEDB).

A value given as a limit tells only on which side of the number the result lay.

The target of one experiment is HLA-A*11:01. Description: IEDB peptide-MHC binding, cellular MHC/competitive/fluorescence; ≥ and ≤ were set here for values at or beyond the usual limits of such assays. The following applies: source organism: Hepatitis B virus.
For experiment [1], the target named is HLA-A*68:01. Described as above. The conditions noted are these: source organism: Hepatitis B virus.
Experiment [2] concerns the target HLA-A*68:02. Described as above. The conditions noted are these: source organism: Hepatitis B virus.
In experiment [3] the target is HLA-A*02:01. Description: IEDB peptide-MHC binding, purified MHC/competitive/radioactivity; ≥ and ≤ were set here for values at or beyond the usual limits of such assays.
In experiment [4] the target is HLA-A*02:02. The description is as above.
The target in experiment [5] is HLA-A*02:03. The description is as above.
Experiment [6] has as its target HLA-A*02:06. Described as above.
The next experiment has as its target HLA-A*03:01. The experiment is described as above. The following applies: source organism: Hepatitis B virus.
For experiment [7], the target named is HLA-A*31:01. The experiment is described as above. The following applies: source organism: Hepatitis B virus.
In experiment [8] the target is HLA-A*02:02. Description: IEDB peptide-MHC binding, cellular MHC/competitive/fluorescence; ≥ and ≤ were set here for values at or beyond the usual limits of such assays.
Experiment [9] has as its target HLA-A*02:03. The description is as above.
In experiment [10] the target is HLA-A*02:06. Described as above.
In experiment [11] the target is HLA-A*31:01. The experiment is described as above. The following applies: source organism: Hepatitis B virus.
Another experiment has as its target HLA-A*01:01. The experiment is described as above. The following applies: source organism: Vaccinia virus WR.
The next experiment deals with HLA-A*23:01. Described as above. The conditions noted are these: source organism: Vaccinia virus WR.
The target in a further experiment is HLA-A*24:02. Described as above. The following applies: source organism: Vaccinia virus WR.
A further experiment addresses HLA-A*26:01. The description is as above. The following applies: source organism: Vaccinia virus WR.
The target of a further experiment is HLA-A*29:02. Described as above. The conditions noted are these: source organism: Vaccinia virus WR.
The next experiment has as its target HLA-A*30:02. Described as above. The conditions noted are these: source organism: Vaccinia virus WR.
Experiment [12] addresses HLA-A*68:02. The experiment can be described thus: IEDB peptide-MHC binding, purified MHC/competitive/radioactivity; ≥ and ≤ were set here for values at or beyond the usual limits of such assays.
Experiment [13] deals with HLA-A*02:01. The experiment can be described thus: IEDB peptide-MHC binding, cellular MHC/competitive/fluorescence; ≥ and ≤ were set here for values at or beyond the usual limits of such assays. The conditions noted are these: source organism: Vaccinia virus WR.
Experiment [14] addresses HLA-A*68:01. Description: IEDB peptide-MHC binding, purified MHC/competitive/radioactivity; ≥ and ≤ were set here for values at or beyond the usual limits of such assays. The following applies: source organism: Hepatitis B virus.
The mark [15] stands for this setting: source organism: Hepatitis B virus.
Setting [16] is: source organism: Vaccinia virus WR.

By IC50 is commonly meant the concentration at which inhibition is half-maximal. For CLIFLLVLL, the IC50 stood at 35700 nM with HLA-A*11:01; 34900 nM with HLA-A*68:01 [1]; 7100 nM with HLA-A*68:02 [2]; 101 nM with HLA-A*02:01 [3] (setting [15]); 1520 nM with HLA-A*02:02 [4] (setting [15]); 659 nM with HLA-A*02:03 [5] (setting [15]). Further, the results for the IC50 with HLA-A*02:06 [6] (setting [15]), with HLA-A*03:01 and in the experiment with HLA-A*31:01 [7] were 1040 nM, 682 nM and 998 nM, respectively.

Consider CLRRFIIFL, for which the IC50 in the experiment with HLA-A*02:02 [8] (setting [15]) is 7110 nM; with HLA-A*02:03 [9] (setting [15]), 14600 nM; with HLA-A*02:06 [10] (setting [15]), 10100 nM; in the experiment with HLA-A*11:01, no less than 70000 nM; with HLA-A*31:01 [11], 6640 nM; in the experiment with HLA-A*68:01 [1], no less than 70000 nM. Moreover, the IC50 with HLA-A*68:02 [2] stood at 48800 nM; in the experiment with HLA-A*02:01 [3] (setting [15]), 1390 nM; with HLA-A*03:01 it was 2630 nM.

For the sequence CQCTVQEFI, the IC50 was 28500 nM in the experiment with HLA-A*01:01; 44500 nM with HLA-A*23:01; 29000 nM in the experiment with HLA-A*24:02; 24800 nM in the experiment with HLA-A*26:01; 20500 nM with HLA-A*29:02; no less than 70000 nM in the experiment with HLA-A*30:02. Also, the IC50 with HLA-A*02:01 [3] (setting [16]) was 2200 nM; with HLA-A*02:02 [4] (setting [16]), 2050 nM; with HLA-A*02:03 [5] (setting [16]) it was 4790 nM; with HLA-A*02:06 [6] (setting [16]) it was 1130 nM; with HLA-A*68:02 [12] (setting [16]), 1730 nM.

For EQRRSTIFDI, the IC50 came out at 17700 nM in the experiment with HLA-A*01:01; 22500 nM in the experiment with HLA-A*02:01 [13]; 23000 nM with HLA-A*02:02 [8] (setting [16]); 11400 nM with HLA-A*02:03 [9] (setting [16]); 25500 nM with HLA-A*02:06 [10] (setting [16]); 50800 nM with HLA-A*23:01. Besides, the half-maximal inhibitory concentration (IC50) in the experiment with HLA-A*24:02 is no less than 70000 nM; with HLA-A*26:01 it was no less than 70000 nM; with HLA-A*29:02, no less than 70000 nM; with HLA-A*30:02, no less than 70000 nM; with HLA-A*68:02 [12] (setting [16]) it was 1030 nM.

In the case of FIIFLFILL, the IC50 came out at 8980 nM with HLA-A*11:01; 10100 nM in the experiment with HLA-A*68:02 [2]; 627 nM with HLA-A*02:02 [4] (setting [15]); 1050 nM in the experiment with HLA-A*02:03 [5] (setting [15]); 900 nM with HLA-A*02:06 [6] (setting [15]); 953 nM with HLA-A*03:01. Besides, the IC50 worked out at 450 nM with HLA-A*31:01 [7] and 3200 nM in the experiment with HLA-A*68:01 [14].

Take FIIFLFILLL: the IC50 is 7470 nM with HLA-A*11:01; 105 nM with HLA-A*02:01 [3] (setting [15]); 441 nM with HLA-A*02:02 [4] (setting [15]); 181 nM in the experiment with HLA-A*02:03 [5] (setting [15]); 1420 nM in the experiment with HLA-A*02:06 [6] (setting [15]); 139 nM with HLA-A*03:01. For the same sequence, the IC50 in the experiment with HLA-A*31:01 [7] was 692 nM; in the experiment with HLA-A*68:01 [14], 3700 nM; with HLA-A*68:02 [12] (setting [15]), 737 nM.

Take FLFILLLCL: the IC50 with HLA-A*02:02 [8] (setting [15]) was found to be 7020 nM; with HLA-A*11:01, 19000 nM; with HLA-A*68:01 [1] it was 26900 nM; with HLA-A*02:01 [3] (setting [15]), 213 nM; with HLA-A*02:03 [5] (setting [15]), 1570 nM; in the experiment with HLA-A*02:06 [6] (setting [15]), 1780 nM. For the same sequence, the IC50 with HLA-A*03:01 was 664 nM; with HLA-A*31:01 [7], 1470 nM; in the experiment with HLA-A*68:02 [12] (setting [15]), 1200 nM.

On to FLFILLLCLI, for which the IC50 with HLA-A*11:01 was found to be 9730 nM; with HLA-A*02:01 [3] (setting [15]), 135 nM; in the experiment with HLA-A*02:02 [4] (setting [15]), 956 nM; with HLA-A*02:03 [5] (setting [15]), 1980 nM; with HLA-A*02:06 [6] (setting [15]) it was 934 nM; with HLA-A*03:01 it was 716 nM. Besides, the IC50 with HLA-A*31:01 [7] is 215 nM; with HLA-A*68:01 [14], 3690 nM; with HLA-A*68:02 [12] (setting [15]), 4500 nM.

With HLYSHPIIL, the half-maximal inhibitory concentration (IC50) with HLA-A*02:06 [10] (setting [15]) was 9450 nM; with HLA-A*11:01, no less than 70000 nM; with HLA-A*31:01 [11] it was 46000 nM; in the experiment with HLA-A*68:01 [1] it was no less than 70000 nM; with HLA-A*68:02 [2], 22700 nM; with HLA-A*02:02 [4] (setting [15]) it was 81 nM. Besides, the IC50 in the experiment with HLA-A*02:03 [5] (setting [15]) came to 18 nM; with HLA-A*03:01 it was 171 nM.

Consider ILLLCLIFL, for which the IC50 was 13800 nM with HLA-A*11:01; 30300 nM with HLA-A*68:01 [1]; 12100 nM in the experiment with HLA-A*68:02 [2]; 1120 nM with HLA-A*02:02 [4] (setting [15]); 1530 nM with HLA-A*02:03 [5] (setting [15]); 145 nM with HLA-A*02:06 [6] (setting [15]). For the same sequence, the IC50 with HLA-A*03:01 was determined as 624 nM; with HLA-A*31:01 [7], 1480 nM.
